From US20160199438A1 (Eli Lilly, published 2016)

Key:
[1] = biological target: human glucose-dependent insulinotropic polypeptide receptor (human) (UniProt P48546); assay: cell-based or functional assay
human GLP-2 receptor = biological target: T1, human GLP-2 receptor (human, UniProt O95838 1-553); assay: cell-based or functional assay
T1 sequence (looked up): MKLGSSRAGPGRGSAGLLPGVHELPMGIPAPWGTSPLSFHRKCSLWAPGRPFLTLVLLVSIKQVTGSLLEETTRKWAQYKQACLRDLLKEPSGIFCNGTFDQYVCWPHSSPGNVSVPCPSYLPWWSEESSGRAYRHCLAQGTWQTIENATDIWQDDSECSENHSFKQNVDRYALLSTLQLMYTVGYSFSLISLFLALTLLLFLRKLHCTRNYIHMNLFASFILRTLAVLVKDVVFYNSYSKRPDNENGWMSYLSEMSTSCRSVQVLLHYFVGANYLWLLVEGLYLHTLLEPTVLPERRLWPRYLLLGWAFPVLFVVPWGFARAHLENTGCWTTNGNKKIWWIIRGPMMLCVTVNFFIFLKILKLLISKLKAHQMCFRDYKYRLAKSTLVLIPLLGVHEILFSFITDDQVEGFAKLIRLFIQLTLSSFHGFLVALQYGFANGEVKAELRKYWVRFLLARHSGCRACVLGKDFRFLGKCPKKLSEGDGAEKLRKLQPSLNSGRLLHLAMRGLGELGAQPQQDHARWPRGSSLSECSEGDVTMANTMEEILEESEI

[2] = biological target: T2, human glucagon-like peptide 1 receptor (human, UniProt P43220 24-463); assay: competition of I-125 GLP-1, SPA, hGLP-1R 293HEK membranes; Ki by Cheng-Prusoff
T2 construct: whole, on cells; also called hGLP-1R; Human GLP-1R
Experimental: The hGLP-1R cDNA is subcloned into the expression plasmid phD (Trans-activated expression of fully gamma-carboxylated recombinant human protein C, an antithrombotic factor. Grinnell, B. W., Berg, D. T., Walls, J. and Yan, S. B. Bio/Technology 5: 1189-1192, 1987). This plasmid DNA is transfected into 293HEK cells and selected with 200 μg/mL Hygromycin.
The binding buffer contains 25 mM HEPES, pH 7.4, 2.5 mM CaCl₂, 1 mM MgCl₂, 0.1% fatty acid free BSA, 0.003% Tween20, and Roche Complete™ Inhibitors without EDTA. […] The peptide analog is dissolved in 100% DMSO and serially diluted in 100% DMSO. Next, 10 μL diluted compounds of the present invention or 100% DMSO are transferred into Corning® 3632 clear bottom assay plates containing 40 μL assay binding buffer or cold glucagon (NSB at 1 μM final). […] Plates are read with a PerkinElmer Life and Analytical Sciences Trilux MicroBeta® scintillation counter after 12 hours of settling time at room temperature.
(§1) The IC₅₀ concentration is converted to Ki using the Cheng-Prusoff equation.

[3] = biological target: T3, human glucose-dependent insulinotropic polypeptide receptor (human, UniProt P48546 22-466); assay: competition of [125I]GIP, SPA, hGIP-R CHO-S membranes; Ki by Cheng-Prusoff
T3 construct: whole, on cells; also called hGIP-R; Human GIP-R
T3 sequence (looked up): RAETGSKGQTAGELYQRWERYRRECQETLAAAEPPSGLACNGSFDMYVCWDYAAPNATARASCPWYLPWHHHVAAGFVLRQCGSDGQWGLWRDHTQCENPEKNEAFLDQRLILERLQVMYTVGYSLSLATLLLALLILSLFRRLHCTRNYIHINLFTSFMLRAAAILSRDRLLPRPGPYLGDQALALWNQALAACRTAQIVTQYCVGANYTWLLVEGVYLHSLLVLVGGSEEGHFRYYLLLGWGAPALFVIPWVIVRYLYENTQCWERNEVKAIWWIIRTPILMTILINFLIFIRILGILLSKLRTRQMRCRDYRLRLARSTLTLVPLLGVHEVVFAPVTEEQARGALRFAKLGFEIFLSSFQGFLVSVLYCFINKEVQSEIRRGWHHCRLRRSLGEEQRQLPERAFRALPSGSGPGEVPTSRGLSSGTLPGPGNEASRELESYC
Experimental: The compounds are serially diluted into binding buffer. Next, 10 μL diluted compound or 100% DMSO is transferred into Corning® 3632 clear bottom assay plates containing 40 μL assay binding buffer or cold GIP (NSB at 0.1 μM final). Then, 90 μL membranes (3 μg/well), 50 μL [|¹²⁵|] GIP (Perkin Elmer Life and Analytical Sciences at 0.15 nM final in reaction), and 50 μL of WGA beads (150 μg/well) is added, sealed, and mixed on a plate shaker for 1 minute. Plates are read with a MicroBeta® scintillation counter after 12 hours of settling time at room temperature.
as §1

[4] = biological target: T3, human glucose-dependent insulinotropic …; assay: cell-based or functional assay
[5] = biological target: T2, human glucagon-like peptide 1 receptor; assay: cell-based or functional assay
[6] = biological target: T4, GIP receptor of GLUTag cells (murine (the cell line is stated to be …, UniProt Q0P543 19-460)); assay: cell-based or functional assay
T4 sequence (looked up): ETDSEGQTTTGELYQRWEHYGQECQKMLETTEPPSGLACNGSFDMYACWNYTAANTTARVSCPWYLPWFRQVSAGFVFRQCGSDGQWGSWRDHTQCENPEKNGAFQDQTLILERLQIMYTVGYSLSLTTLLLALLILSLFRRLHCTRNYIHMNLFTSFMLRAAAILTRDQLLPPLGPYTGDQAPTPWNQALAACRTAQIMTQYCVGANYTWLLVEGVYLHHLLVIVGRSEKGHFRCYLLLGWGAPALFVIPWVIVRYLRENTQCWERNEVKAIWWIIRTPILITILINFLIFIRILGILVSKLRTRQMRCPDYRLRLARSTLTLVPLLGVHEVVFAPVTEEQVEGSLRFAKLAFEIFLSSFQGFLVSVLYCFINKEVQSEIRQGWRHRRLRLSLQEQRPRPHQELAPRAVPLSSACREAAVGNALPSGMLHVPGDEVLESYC

[7] = biological target: T2, human glucagon-like peptide 1 receptor; assay: ratio of Ki on hGLP-1R to Ki on hGIP-R (reference), radioligand competition
human glucagon receptor = human glucagon receptor (human, UniProt P47871 26-477); assay: cell-based or functional assay
[8] = biological target: T2, human glucagon-like peptide 1 receptor; assay: Ki ratio hGLP-1R/hGIP-R normalized by 4.53 (native GLP-1/GIP), radioligand competition

Chain of human glucagon receptor (P47871 26-477): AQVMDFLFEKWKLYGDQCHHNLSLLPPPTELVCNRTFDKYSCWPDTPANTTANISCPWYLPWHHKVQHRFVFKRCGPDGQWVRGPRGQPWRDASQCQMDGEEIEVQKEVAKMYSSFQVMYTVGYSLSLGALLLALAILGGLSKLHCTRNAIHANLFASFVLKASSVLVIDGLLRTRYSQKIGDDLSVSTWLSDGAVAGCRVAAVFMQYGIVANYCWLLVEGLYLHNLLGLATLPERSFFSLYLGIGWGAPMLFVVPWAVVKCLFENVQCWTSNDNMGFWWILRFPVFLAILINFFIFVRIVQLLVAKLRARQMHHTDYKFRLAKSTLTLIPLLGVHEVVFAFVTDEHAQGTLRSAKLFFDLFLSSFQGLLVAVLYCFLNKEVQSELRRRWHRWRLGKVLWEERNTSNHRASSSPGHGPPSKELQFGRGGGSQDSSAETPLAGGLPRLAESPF

In the case of “human GIP(1-42)NH2 (from UniProt P09681 52-93) (ligand)”, the Emax, % (intracellular cAMP) [1] is reported as 100%.

Work on “C18-acylated human GLP-2 control (from UniProt P01275 146-178) (peptide)” yielded a Rel EC50 (intracellular cAMP) (human GLP-2 receptor) of 1.86 nM.

B1: Example 3 (peptide)
peptide: YXEGTFTSDYSIXLDKIAQKAFVQWLIAGGPSSGAPPPS
modifications: Aib at positions 2 and 13; K at position 20 conjugated at the epsilon-amino group with ([2-(2-Amino-ethoxy)-ethoxy]-acetyl)2-(γGlu)1-CO-(CH2)16-CO2H; C-terminal primary amide
notes: Synthetic acylated peptide, trifluoroacetate salt
For B1, the Ki [2] was 427 nM, the Ki [3] was 26.7 nM and the “EC50 (intracellular cAMP)” value [4] was 3.15 nM. For the same molecule, the “Emax, % (intracellular cAMP)” value [4] was 106%, the “EC50 (intracellular cAMP)” value [5] was 33.9 nM and the “Emax, % (intracellular cAMP)” value [5] was 96.2%. The “Average EC50, cAMP in GLUTag cells” value [6] was 1610 nM and the “Rel EC50 (intracellular cAMP)” value (human GLP-2 receptor) was 199 nM.

B2: Example 6 (peptide)
peptide: YXEGTFTSDYSIXLDKIAQKAXVQWLIAGGPSSGAPPPS
modifications: Aib at positions 2 and 13; K at position 20 conjugated at the epsilon-amino group with ([2-(2-Amino-ethoxy)-ethoxy]-acetyl)2-(γGlu)1-CO-(CH2)16-CO2H; 1-Nal at position 22; C-terminal primary amide
notes: as for B1
With B2 the Ki [2] was 365 nM, the “Absolute ratio of hGLP-1R/hGIP-R” value [7] was 8.3 and the Ki [3] was 44.2 nM. The “EC50 (intracellular cAMP)” value (human glucagon receptor) was greater than 1000 nM, the “EC50 (intracellular cAMP)” value [4] was 4.4 nM and the “Emax, % (intracellular cAMP)” value [4] was 106%. The “EC50 (intracellular cAMP)” value [5] was 28.4 nM, the “Emax, % (intracellular cAMP)” value [5] was 104% and the “Molar ratio of hGLP-1R/hGIP-R” value [8] was 1.83.

B3: Example 7 (peptide)
peptide: YXEGTFTSDYSIXLDKIAQKAXVQWLIAGGPSSGAPPPS
modifications: Aib at positions 2 and 13; K at position 20 conjugated at the epsilon-amino group with ([2-(2-Amino-ethoxy)-ethoxy]-acetyl)2-(γGlu)2-CO-(CH2)16-CO2H; 1-Nal at position 22; C-terminal primary amide
notes: as for B1
With B3 the Ki [2] was 352 nM, the “Absolute ratio of hGLP-1R/hGIP-R” value [7] was 7.6 and the Ki [3] was 46.1 nM. The “EC50 (intracellular cAMP)” value (human glucagon receptor) was greater than 1000 nM, the “EC50 (intracellular cAMP)” value [4] was 8.07 nM and the “Emax, % (intracellular cAMP)” value [4] was 106%. For the same molecule, the “EC50 (intracellular cAMP)” value [5] was 35.5 nM, the “Emax, % (intracellular cAMP)” value [5] was 97.2% and the “Average EC50, cAMP in GLUTag cells” value [6] was 2750 nM. The “Molar ratio of hGLP-1R/hGIP-R” value [8] was 1.68 and the “Rel EC50 (intracellular cAMP)” value (human GLP-2 receptor) was 1800 nM.

B4: Example 1 (peptide)
peptide: YXEGTFTSDYSIXLDKIAQKAFVQWLIAGGPSSGAPPPS
modifications: Aib at positions 2 and 13; K at position 20 conjugated at the epsilon-amino group with ([2-(2-Amino-ethoxy)-ethoxy]-acetyl)2-(γGlu)1-CO-(CH2)18-CO2H; C-terminal primary amide
B4 was tested, and the “Emax, % (intracellular cAMP)” value [4] was 97.9%, the “Emax, % (intracellular cAMP)” value [5] was 85.2% and the “Average EC50, cAMP in GLUTag cells” value [6] was 1490 nM.

B5: Example 8 (peptide)
peptide: YXEGTFTSDYSIXLDKIAQKAXVQWLIAGGPSSGAPPPS
modifications: Aib at positions 2 and 13; K at position 20 conjugated at the epsilon-amino group with ([2-(2-Amino-ethoxy)-ethoxy]-acetyl)2-(γGlu)1-CO-(CH2)18-CO2H; 1-Nal at position 22; C-terminal primary amide
notes: as for B1
B5 was tested, and the Ki [2] was 307 nM, the “Absolute ratio of hGLP-1R/hGIP-R” value [7] was 4.5 and the Ki [3] was 67.5 nM. The “EC50 (intracellular cAMP)” value (human glucagon receptor) was greater than 1000 nM, the “EC50 (intracellular cAMP)” value [4] was 21.1 nM and the “Emax, % (intracellular cAMP)” value [4] was 108%. The “EC50 (intracellular cAMP)” value [5] was 57.9 nM, the “Emax, % (intracellular cAMP)” value [5] was 88.4% and the “Molar ratio of hGLP-1R/hGIP-R” value [8] was 0.99.

B6: Example 4 (peptide)
peptide: YXEGTFTSDYSIXLDKIAQKAFVQWLIAGGPSSGAPPPS
modifications: Aib at positions 2 and 13; K at position 20 conjugated at the epsilon-amino group with ([2-(2-Amino-ethoxy)-ethoxy]-acetyl)2-(γGlu)2-CO-(CH2)16-CO2H; C-terminal primary amide
notes: as for B1
With B6 the Ki [2] was 714 nM, the Ki [3] was 40.7 nM and the “EC50 (intracellular cAMP)” value [4] was 3.76 nM. The “Emax, % (intracellular cAMP)” value [5] was 100%, the “Average EC50, cAMP in GLUTag cells” value [6] was 2190 nM and the “Rel EC50 (intracellular cAMP)” value (human GLP-2 receptor) was 405 nM.

B7: Example 2 (peptide)
peptide: YXEGTFTSDYSIXLDKIAQKAXVQWLIAGGPSSGAPPPS
modifications: Aib at positions 2 and 13; K at position 20 conjugated at the epsilon-amino group with ([2-(2-Amino-ethoxy)-ethoxy]-acetyl)2-(γGlu)2-CO-(CH2)18-CO2H; 1-Nal at position 22; C-terminal primary amide
notes: as for B1
With B7 the Ki [2] was 344 nM, the “Absolute ratio of hGLP-1R/hGIP-R” value [7] was 5.4 and the Ki [3] was 63.9 nM. For the same molecule, the “EC50 (intracellular cAMP)” value (human glucagon receptor) was greater than 1000 nM, the “EC50 (intracellular cAMP)” value [4] was 17.5 nM and the “Emax, % (intracellular cAMP)” value [4] was 94.7%. The “EC50 (intracellular cAMP)” value [5] was 75.7 nM, the “Emax, % (intracellular cAMP)” value [5] was 98.2% and the “Average EC50, cAMP in GLUTag cells” value [6] was 2920 nM. For the same molecule, the “Molar ratio of hGLP-1R/hGIP-R” value [8] was 1.19 and the “Rel EC50 (intracellular cAMP)” value (human GLP-2 receptor) was 1610 nM.

B8: Example 5 (peptide)
peptide: YXEGTFTSDYSIXLDKIAQKAFVQWLIAGGPSSGAPPPS
modifications: Aib at positions 2 and 13; K at position 20 conjugated at the epsilon-amino group with ([2-(2-Amino-ethoxy)-ethoxy]-acetyl)2-(γGlu)2-CO-(CH2)18-CO2H; C-terminal primary amide
notes: as for B1
With B8 the Ki [2] was 158 nM, the Ki [3] was 17.8 nM and the “EC50 (intracellular cAMP)” value [4] was 8.76 nM. For the same molecule, the “Emax, % (intracellular cAMP)” value [4] was 105% and the “Emax, % (intracellular cAMP)” value [5] was 105%.
